This note sets out measurements from patent US9212226B2, “Amino acid sequences directed against CXCR4 and other GPCRs and compounds comprising the same” (Ablynx N.V., priority 2008, dated 2015).

Assay [1] addresses T1, CXCR4 (Homo sapiens, UniProt P61073). Briefly: [125I]-CXCL12 competition binding on membranes from HEK293T cells transiently expressing CXCR4. As to conditions: for Displacem. (%) of [125I]-CXCL12 at 0.5 μM: at highest test concentration of 0.5 μM (footnote a: no significant displacement); for displacement of specifically bound [125I]-CXCL12: purified ligands, highest Nanobody test concentration 0.5 μM; for Binding (binding efficiency, competition binding with [125I]-CXCL12): screening of Nanobody clone pools. As to the method:
(§1) HEK293T cells were maintained at 37° C. in a humidified 5% CO2, 95% air atmosphere in Dulbecco's modified Eagle's medium (DMEM) containing 2 mM L-glutamine, 50 IU/ml penicillin, 50 μg/ml streptomycin, and 10% (v/v) fetal calf serum. Jurkat cells were cultured in a humidified 5% CO2, 95% air atmosphere in a 1:1 mixture of Dulbecco's modified Eagle's medium (DMEM) and Ham's F12 medium containing 2 mM L-glutamine, 50 IU/ml penicillin, 50 μg/ml streptomycin, and 10% (v/v) fetal calf serum. […] [^125 I]-Labelling— Radiolabeling of Nanobodies with ^125I was performed using the Iodo-gen method (Pierce, Rockford, Ill.) according to the manufacturer's protocol. ^125I-labeled Nanobodies was separated from free iodine (>99%) using a Sephadex G-25 gel filtration column (Amersham Biosciences, Piscataway, N.J.). […] Competition Binding Assays— Membranes from HEK293T cells transiently expressing CXCR3 or CXCR4 were prepared 48 h after transfection as follows. Cells were washed and scraped from the cell culture dishes with ice-cold PBS containing 1 mm EDTA. The scraped cells were pelleted at 1500×g for 10 min at 4° C. The pellet was washed and then resuspended in ice-cold membrane buffer (15 mM Tris, pH 7.5, 1 mM EGTA, 0.3 mM EDTA, and 2 mM MgCl2). The cell suspension was homogenized by 10 strokes at 1200 rpm using a Teflon-glass homogenizer and rotor and further subjected to three freeze-thaw cycles using liquid nitrogen. Membranes were separated by centrifugation at 40,000 g for 25 min at 4° C. The membrane pellet was washed and resuspended in ice-cold Tris-sucrose buffer (20 mM Tris, pH 7.4, and 250 mM sucrose) and frozen in liquid nitrogen. The total protein was determined using a Bradford assay (Bio-Rad). […] Membranes were then harvested over polyethylenimine (0.5%)-treated Whatman GF/C filter plates and washed three times with ice cold binding buffer containing 500 mM NaCl. Plates were counted by liquid scintillation. Inositol Phosphate Accumulation Assay— 24 hours post transfection with pcDNA3.1-CXCR4 and pcDNA1-HA-mG {alpha} qi5 (see Verzijl et al, 2008 supra), 250.000 cells were seeded into 24-wells plates and labelled overnight using inositol-free minimal essential medium supplemented with 1 μCi myo-[2-^3H]-inositol. The next day, the cells were washed once to remove not incorporated myo-[2-^3H]-inositol. […] In agonist experiments, the cells were directly stimulated with test compounds and LiCl (10 mM) in assay buffer for 2 h at 37° C. The stimulation was stopped by aspirating the stimulation medium and adding ice-cold 10 mM formic acid. The accumulated inositol phosphates were isolated by anion exchange chromatography and counted by liquid scintillation. CRE Reporter Gene Assay— HEK239T cells were transfected with pCRE/β-galactosidase (Chen W, Shields T S, Stork P J S, Cone R D (1995) Anal Biochem 226:349-354) and plasmids (pcDEF3 or pcDNA3.1) encoding the indicated receptors. 40,000 transfected cells per well were seeded into 96 well plates and grown in DMEM supplemented with 10% fetal calf serum. The medium was replaced 32 h after transfection by serum-free DMEM supplemented with 0.5% bovine serum albumin and ligands as indicated. […] The β-galactosidase activity was determined by the measurement of absorption at 420 nm with a PowerwaveX340 plate reader (Bio-Tek Instruments Inc., Winooski, Vt.) after incubation with the assay buffer when the OD420 value for forskolin (3 μM) controls reached 0.4-0.6. Chemotaxis Assay— The chemotactic responsiveness of Jurkat 3D cells was assessed using ChemoTx™ plates (Receptor Technologies Ltd., Oxon, UK) in which a upper cell-containing compartment is separated from a lower chemoattractant-containing compartment by a polyvinylpyrollidone-free polycarbonate filter with 5-μm pores. Cells were harvested, washed and resuspended in RPMI containing 0.5% bovine serum albumin and then loaded to 150,000 cells per well in a volume of 25 μl into the upper compartment of the chemotaxis chamber.

Assay [2] addresses T1, CXCR4. Briefly: [125I]-238D2 competition binding on membranes from HEK293T cells transiently expressing CXCR4. The note with it: for displacement of [125I]-238D2 from CXCR4: [125I]-238D2 3 nM; for Displacem. (%) of [125I]-238D2 at 0.5 μM: at highest test concentration of 0.5 μM (footnote a: no significant displacement; b: maximum not reached). As to the method: as §1
In general terms: Displacement assays read how much labelled ligand stays bound in the presence of the test substance.

In assay [3] the target is T1, CXCR4. Briefly: [125I]-238D4 competition binding on membranes from HEK293T cells transiently expressing CXCR4. The note with it: for displacement of [125I]-238D4 from CXCR4: [125I]-238D4 3 nM; for Displacem. (%) of [125I]-238D4 at 0.5 μM: at highest test concentration of 0.5 μM (footnote a: no significant displacement; b: maximum not reached). As to the method:
as §1

Assay [4] concerns Jurkat cells endogenously expressing CXCR4. The assay is described as follows: Chemotaxis assay (ChemoTx plates) with Jurkat cells towards CXCL12. It is filed as cell-based. As to the method:
HEK293T cells were maintained at 37° C. in a humidified 5% CO2, 95% air atmosphere in Dulbecco's modified Eagle's medium (DMEM) containing 2 mM L-glutamine, 50 IU/ml penicillin, 50 μg/ml streptomycin, and 10% (v/v) fetal calf serum. Jurkat cells were cultured in a humidified 5% CO2, 95% air atmosphere in a 1:1 mixture of Dulbecco's modified Eagle's medium (DMEM) and Ham's F12 medium containing 2 mM L-glutamine, 50 IU/ml penicillin, 50 μg/ml streptomycin, and 10% (v/v) fetal calf serum. […] [^125 I]-Labelling— Radiolabeling of Nanobodies with ^125I was performed using the Iodo-gen method (Pierce, Rockford, Ill.) according to the manufacturer's protocol. ^125I-labeled Nanobodies was separated from free iodine (>99%) using a Sephadex G-25 gel filtration column (Amersham Biosciences, Piscataway, N.J.). […] Competition Binding Assays— Membranes from HEK293T cells transiently expressing CXCR3 or CXCR4 were prepared 48 h after transfection as follows. Cells were washed and scraped from the cell culture dishes with ice-cold PBS containing 1 mm EDTA. The scraped cells were pelleted at 1500×g for 10 min at 4° C. The pellet was washed and then resuspended in ice-cold membrane buffer (15 mM Tris, pH 7.5, 1 mM EGTA, 0.3 mM EDTA, and 2 mM MgCl2). The cell suspension was homogenized by 10 strokes at 1200 rpm using a Teflon-glass homogenizer and rotor and further subjected to three freeze-thaw cycles using liquid nitrogen. Membranes were separated by centrifugation at 40,000 g for 25 min at 4° C. The membrane pellet was washed and resuspended in ice-cold Tris-sucrose buffer (20 mM Tris, pH 7.4, and 250 mM sucrose) and frozen in liquid nitrogen. The total protein was determined using a Bradford assay (Bio-Rad). Periplasmas (1:10) or ligands were pre-incubated with membranes in binding buffer (50 mM HEPES (pH 7.4), 1 mM CaCl2, 5 mM MgCl2, 100 mM NaCl, 0.5% bovine serum albumin) supplemented with 0.5% BSA for 1 h at 22° C. before the addition of [^125I]-CXCL12 (40 pM) or [^125I]-238D2 (3 nM) or [^125I]-238D4 (3 nM) for additional 2 h at 22° C. […] Membranes were then harvested over polyethylenimine (0.5%)-treated Whatman GF/C filter plates and washed three times with ice cold binding buffer containing 500 mM NaCl. Plates were counted by liquid scintillation. Inositol Phosphate Accumulation Assay— 24 hours post transfection with pcDNA3.1-CXCR4 and pcDNA1-HA-mG {alpha} qi5 (see Verzijl et al, 2008 supra), 250.000 cells were seeded into 24-wells plates and labelled overnight using inositol-free minimal essential medium supplemented with 1 μCi myo-[2-^3H]-inositol. The next day, the cells were washed once to remove not incorporated myo-[2-^3H]-inositol. […] In agonist experiments, the cells were directly stimulated with test compounds and LiCl (10 mM) in assay buffer for 2 h at 37° C. The stimulation was stopped by aspirating the stimulation medium and adding ice-cold 10 mM formic acid. The accumulated inositol phosphates were isolated by anion exchange chromatography and counted by liquid scintillation. CRE Reporter Gene Assay— HEK239T cells were transfected with pCRE/β-galactosidase (Chen W, Shields T S, Stork P J S, Cone R D (1995) Anal Biochem 226:349-354) and plasmids (pcDEF3 or pcDNA3.1) encoding the indicated receptors. 40,000 transfected cells per well were seeded into 96 well plates and grown in DMEM supplemented with 10% fetal calf serum. The medium was replaced 32 h after transfection by serum-free DMEM supplemented with 0.5% bovine serum albumin and ligands as indicated. Following 16 h of ligand incubation, the medium was removed, the cells were lysed in 100 μl of assay buffer (100 mM sodium phosphate buffer at pH 8.0, 4 mM 2-nitrophenol-β-D-pyranoside, 0.5% Triton X-100, 2 mM MgSO4, 0.1 mM MnCl2, and 40 mM β-mercaptoethanol) and incubated at room temperature. […]

The mark [5] stands for this setting: membranes from HEK293T cells transiently expressing CXCR4.
The mark [6] stands for this setting: membranes from HEK293T cells transiently expressing CXCR4, mean ± S.E.M.

T1 sequence (P61073 whole entry): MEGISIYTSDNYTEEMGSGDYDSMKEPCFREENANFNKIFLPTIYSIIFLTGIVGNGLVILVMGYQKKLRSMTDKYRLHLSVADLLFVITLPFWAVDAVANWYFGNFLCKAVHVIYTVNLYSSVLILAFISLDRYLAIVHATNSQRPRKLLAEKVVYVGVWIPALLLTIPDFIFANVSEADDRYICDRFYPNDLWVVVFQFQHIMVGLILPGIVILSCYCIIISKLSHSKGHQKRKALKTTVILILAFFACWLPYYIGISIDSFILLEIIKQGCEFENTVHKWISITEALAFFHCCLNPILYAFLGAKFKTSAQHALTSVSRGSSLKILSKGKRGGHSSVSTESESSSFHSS

B1: 238C5: Nanobody (VHH) raised against human CXCR4, SEQ ID NO: 243 (protein)
VHH: EVQLMESGGGLVQAGGSLRLACAASGFTFEDYAIGWFRKAPGKEREGVSCISGSDGSTTYADSVKGRFTISTDNAKNTVYLEMNSLKPEDTAVYYCAQQYGVGGRVVCPGPYEYDVWGQGTQVTVSS
modifications: Nanobody, Nanobody constructs or fragments thereof
Turning to B1, in the assay with CXCR4 [1], the “Displacem. (%) of [125I]-CXCL12 at 0.5 μM” value is given as 0^a % and the “displacement of specifically bound [125I]-CXCL12” value is “unable to displace”. In addition, the “affinity to CXCR4” value with CXCR4 [1] (in words) was “low affinity”. The “Binding (binding efficiency, competition binding with [125I]-CXCL12)” value with CXCR4 [1] (setting [5]) is “+ (+ = 30-69%)”. In the assay with CXCR4 [2], the “displacement of [125I]-238D2 from CXCR4” value is given as “displaces” and the “Displacem. (%) of [125I]-238D2 at 0.5 μM” value was 45 ± 5^b %. Besides, the “binding mode at CXCR4” value in the assay with CXCR4 [2] (displacement of labelled Nanobodies only at ≧100 nM) was “low affinity allosteric CXCR4 ligand”. For the same molecule, in the assay with CXCR4 [3], the “displacement of [125I]-238D4 from CXCR4” value is given as “displaces” and the “Displacem. (%) of [125I]-238D4 at 0.5 μM” value was 38 ± 4^b %.

B2: 237G7: Nanobody (VHH) raised against human CXCR4, SEQ ID NO: 251 (protein)
VHH: EVQLVESGGGLVQPGGSLRLSCAASSFIGNYHAIVWLRQAPGKELEGVSCITSRDSITYYASFVKGRFTISRDDAKNTVYLQMNNLKPEDTAVYYCAVBTSMTCPTLIVRFNYRGQGTQVTVSS
modifications: Nanobody, Nanobody constructs or fragments thereof
For the molecule B2, in the assay with CXCR4 [1], the “Displacem. (%) of [125I]-CXCL12 at 0.5 μM” value is given as 0^a % and the “displacement of specifically bound [125I]-CXCL12” value is recorded as “unable to displace”. Moreover, the “Binding (binding efficiency, competition binding with [125I]-CXCL12)” value with CXCR4 [1] (setting [5]) was “+ (+ = 30-69%)”. In the assay with CXCR4 [2], the “displacement of [125I]-238D2 from CXCR4” value is given as “unable to inhibit” and the “Displacem. (%) of [125I]-238D2 at 0.5 μM” value is listed as 0^a %. Besides, in the assay with CXCR4 [3], the “displacement of [125I]-238D4 from CXCR4” value is reported as “unable to inhibit” and the “Displacem. (%) of [125I]-238D4 at 0.5 μM” value is 0^a %.

B3: 238D2-20GS-238D4: heterobivalent Nanobody, 238D2 linked to 238D4 by a 20 amino acid GGGGS linker (protein)
chain: EVQLVESGGGLVQTGGSLRLSCAASGFTFSSYAMSWVRQAPGKGLEWVSGIKSSGDSTRYAGSVKGRFTISRDNAKNMLYLQMYSLKPEDTAVYYCAKSRVSRTGLYTYDNRGQGTQVTVSSGGGGSGGGGSGGGGSGGGGSEVQLMESGGGLVQAGGSLRLSCAASGRTFNNYAMGWFRRAPGKEREFVAAITRSGVRSGVSAIYGDSVKDRFTISRDNAKNTLYLQMNSLKPEDTAVYTCAASAIGSGALRRFEYDYSGQGTQVTVSS
modifications: Nanobody, Nanobody constructs or fragments thereof
notes: heterobivalent Nanobody, 238D2 linked to 238D4 by a 20 amino acid GGGGS linker
On to B3, for which, in the assay with CXCR4 [1] ([125I]-CXCL12 displacement, potency relative to those of monovalent 238D2), the “Rel. potency, relative to monovalent 238D2” value worked out at 27. In addition, in the assay with CXCR4 [1] ([125I]-CXCL12 displacement, potency relative to those of monovalent 238D4), the “Rel. potency, relative to monovalent 238D4” value worked out at 17. Also, in the assay with CXCR4 [1] (heterobivalent construct), the “increase in affinity to CXCR4 over monovalent 238D2” value is listed as 27 fold and the “increase in affinity to CXCR4 over monovalent 238D4” value came out at 17 fold. Also, in the assay with CXCR4 [1] (setting [6]), the “Displacem. (%) of [125I]-CXCL12 (maximal displacement), bivalent Nanobodies” value stood at 103 ± 4% and the “pKi, [125I]-CXCL12, bivalent Nanobodies” value was found to be 9.44 ± 0.07. In addition, the “inhibition of migration of Jurkat cells towards CXCL12” value in assay [4] (300 pM CXCL12) is “fully antagonized”. Moreover, the “Imax (%), Chemotaxis, bivalent Nanobodies” value in assay [4] (Jurkat/0.3 nM CXCL12, mean ± S.E.M.) is listed as 100 ± 4%. In addition, the “pKi, antagonism of the chemoattractant effects of CXCL12” value in assay [4] (n=3) stood at 10.19±0.27.
